Here are results for three molecules from paper PMC2241918.

Like-named read-outs stand apart in the source and are kept apart here.

The target of data set [1] is Cfr42I restriction endonuclease (Citrobacter freundii RFL42). Nature of the data set: AUC.
Data set [2] has as its target T1, Cfr42I restriction endonuclease (Citrobacter freundii RFL42, UniProt B0LL99 1-216).
T1 sequence: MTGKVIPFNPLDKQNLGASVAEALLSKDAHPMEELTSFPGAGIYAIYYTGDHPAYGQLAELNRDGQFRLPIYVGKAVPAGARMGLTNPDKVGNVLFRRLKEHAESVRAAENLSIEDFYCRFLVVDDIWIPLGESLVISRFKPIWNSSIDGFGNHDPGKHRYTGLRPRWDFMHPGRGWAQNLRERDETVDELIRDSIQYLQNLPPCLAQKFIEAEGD
Put plainly: EMSA. In general terms: A gel shift assay detects complexes by their altered migration in electrophoresis.

Data set [3] addresses T1, Cfr42I restriction endonuclease. Put plainly: EMSA. The source holds these as a separate data set.

In data set [1], “Cfr42I restriction endonuclease (enzyme)” gave a stoichiometry N of 4.

B1: 30/30 (dsDNA)
DNA 1: AGACCCACGCCACCGCGGTGGAGATTACGG
DNA 2: CCGTAATCTCCACCGCGGTGGCGTGGGTCT
In the case of B1, the binding result in data set [2] was “binds”.

B2: 16/16 (dsDNA)
DNA 1: CGCCACCGCGGTGGCG
DNA 2: CGCCACCGCGGTGGCG
On to B2, for which the binding result in data set [3] is recorded as “binds”.

As a reminder, the stoichiometry N is the number of molecules, sites or subunits per partner or assembly.
